B1: VZV protein gB, soluble (captured on beads or assayed directly in supernatants) (other)
chain: VSPSSFYESLQVEPTQSEDITRSAHLGDGDEIREAIHKSQDAETKPTFYVCPPPTGSTIVRLEPTRTCPDYHLGKNFTEGIAVVYKENIAAYKFKATVYYKDVIVSTAWAGSSYTQITNRYADRVPIPVSEITDTIDKFGKCSSKATYVRNNHKVEAFNEDKNPQDMPLIASKYNSVGSKAWHTTNDTYMVAGTPGTYRTGTSVNCIIEEVEARSIFPYDSFGLSTGDIIYMSPFFGLRDGAYREHSNYAMDRFHQFEGYRQRDLDTRALLEPAARNFLVTPHLTVGWNWKPKRTEVCSLVKWREVEDVVRDEYAHNFRFTMKTLSTTFISETNEFNLNQIHLSQCVKEEARAIINRIYTTRYNSSHVRTGDIQTYLARGGFVVVFQPLLSNSLARLYLQELVRENTNHSPQKHPTRNTRSRRSVPVELRANRTITTTSSVEFAMLQFTYDHIQEHVNEMLARISSSWCQLQNRERALWSGLFPINPSALASTILDQRVKARILGDVISVSNCPELGSDTRIILQNSMRVSGSTTRCYSRPLISIVSLNGSGTVEGQLGTDNELIMSRDLLEPCVANHKRYFLFGHHYVYYEDYRYVREIAVHDVGMISTYVDLNLTLLKDREFMPLQVYTRDELRDTGLLDYSEIQRRNQMHSLRFYDIDKVVQYDSGTAIMQGMAQFFQGLGTAGQAVGHVVLGATGALLSTVHGFTTFLSNP
notes: also called VZV gB
B2: LILRB1 (in supernatants) (receptor)
chain: GHLPKPTLWAEPGSVITQGSPVTLRCQGGQETQEYRLYREKKTALWITRIPQELVKKGQFPIPSITWEHAGRYRCYYGSDTAGRSESSDPLELVVTGAYIKPTLSAQPSPVVNSGGNVILQCDSQVAFDGFSLCKEGEDEHPQCLNSQPHARGSSRAIFSVGPVSPSRRWWYRCYAYDSNSPYEWSLPSDLLELLVLGVSKKPSLSVQPGPIVAPEETLTLQCGSDAGYNRFVLYKDGERDFLQLAGAQPQAGLSQANFTLGPVSRSYGGQYRCYGAHNLSSEWSAPSDPLDILIAGQFYDRVSLSVQPGPTVASGENVTLLCQSQGWMQTFLLTKEGAADDPWRLRSTYQSQKYQAEFPMGPVTSAHAGTYRCYGSQSSKPYLLTHPSDPLELVVSGPSGGPSSPTTGPTSTSGPEDQPLTPTGSDPQSGLGRHLGV
B3: ICAM1 expressed on cells (gD-GPI construct or full-length protein) (receptor)
chain: QTSVSPSKVILPRGGSVLVTCSTSCDQPKLLGIETPLPKKELLLPGNNRKVYELSNVQEDSQPMCYSNCPDGQSTAKTFLTVYWTPERVELAPLPSWQPVGKNLTLRCQVEGGAPRANLTVVLLRGEKELKREPAVGEPAEVTTTVLVRRDHHGANFSCRTELDLRPQGLELFENTSAPYQLQTFVLPATPPQLVSPRVLEVDTQGTVVCSLDGLFPVSEAQVHLALGDQRLNPTVTYGNDSFSAKASVSVTAEDEGTQRLTCAVILGNQSQETLQTVTIYSFPAPNVILTKPEVSEGTEVTVKCEAHPRAKVTLNGVPAQPLGPRAQLLLKATPEDNGRSFSCSATLEVAGQLIHKNQTRELRVLYGPRLDERDCPGNWTWPENSQQTPMCQAWGNPLPELKCLKDGTFPLPIGESVTVTRDLEGTYLCRARSTQGEVTRKVTVNVLSPRYEIVIITVVAAAVIMGTAGLSTYLYNRQRKIKKYRLQQAQKGTPMKPNTQATPP
notes: whole, on cells
B4: FLRT3 (in supernatants) (receptor)
chain: KSCPSVCRCDAGFIYCNDRFLTSIPTGIPEDATTLYLQNNQINNAGIPSDLKNLLKVERIYLYHNSLDEFPTNLPKYVKELHLQENNIRTITYDSLSKIPYLEELHLDDNSVSAVSIEEGAFRDSNYLRLLFLSRNHLSTIPWGLPRTIEELRLDDNRISTISSPSLQGLTSLKRLVLDGNLLNNHGLGDKVFFNLVNLTELSLVRNSLTAAPVNLPGTNLRKLYLQDNHINRVPPNAFSYLRQLYRLDMSNNNLSNLPQGIFDDLDNITQLILRNNPWYCGCKMKWVRDWLQSLPVKVNVRGLMCQAPEKVRGMAIKDLNAELFDCKDSGIVSTIQITTAIPNTVYPAQGQWPAPVTKQPDIKNPKLTKDHQTTGSPSRKTITITVKSVTSDTIHISWKLALPMTALRLSWLKLGHSPAFGSITETIVTGERSEYLVTALEPDSPYKVCMVPMETSNLYLFDETPVCIETETAPLRMYNPTTTLNREQEKEPYKNPNLP
B5: HAVCR1 expressed on cells (gD-GPI construct or full-length protein) (receptor)
chain: SVKVGGEAGPSVTLPCHYSGAVTSMCWNRGSCSLFTCQNGIVWTNGTHVTYRKDTRYKLLGDLSRRDVSLTIENTAVSDSGVYCCRVEHRGWFNDMKITVSLEIVPPKVTTTPIVTTVPTVTTVRTSTTVPTTTTVPMTTVPTTTVPTTMSIPTTTTVLTTMTVSTTTSVPTTTSIPTTTSVPVTTTVSTFVPPMPLPRQNHEPVATSPSSPQPAETHPTTLQGAIRREPTSSPLYSYTTDGNDTVTESSDGLWNNNQTQLFLEHSLLTANTTKGIYAGVCISVLVLLALLGVIIAKKYFFKKEVQQLSVSFSSLQIKALQNAVEKEVQAEDNIYIENSLYATD
notes: whole, on cells

Test [1] concerns the target T1, MUSK expressed on cells (gD-GPI construct or full-length protein) (human, UniProt O15146 24-869).
T1 construct: whole, on cells
T1 sequence: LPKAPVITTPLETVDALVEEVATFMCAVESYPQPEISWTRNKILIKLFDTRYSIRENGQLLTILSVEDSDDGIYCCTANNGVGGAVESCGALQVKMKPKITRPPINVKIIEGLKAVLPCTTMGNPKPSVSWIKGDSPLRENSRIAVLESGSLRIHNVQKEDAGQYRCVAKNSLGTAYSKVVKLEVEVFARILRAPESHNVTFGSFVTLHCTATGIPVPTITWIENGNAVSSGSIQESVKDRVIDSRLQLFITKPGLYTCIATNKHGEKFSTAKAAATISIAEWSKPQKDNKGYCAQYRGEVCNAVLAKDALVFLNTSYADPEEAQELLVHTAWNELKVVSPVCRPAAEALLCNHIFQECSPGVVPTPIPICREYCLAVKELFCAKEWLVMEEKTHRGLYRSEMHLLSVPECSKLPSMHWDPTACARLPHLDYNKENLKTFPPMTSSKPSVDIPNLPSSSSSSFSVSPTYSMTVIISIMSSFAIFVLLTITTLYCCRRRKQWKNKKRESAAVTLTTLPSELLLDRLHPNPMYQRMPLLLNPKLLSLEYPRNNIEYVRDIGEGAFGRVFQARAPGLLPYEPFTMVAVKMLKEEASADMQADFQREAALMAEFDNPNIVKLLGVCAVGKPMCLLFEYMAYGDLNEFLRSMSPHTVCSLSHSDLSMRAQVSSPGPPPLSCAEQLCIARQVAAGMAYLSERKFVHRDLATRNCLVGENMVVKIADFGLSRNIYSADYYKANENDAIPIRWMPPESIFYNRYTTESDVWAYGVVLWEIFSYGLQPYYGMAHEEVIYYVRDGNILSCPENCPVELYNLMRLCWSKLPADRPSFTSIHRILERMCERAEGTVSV
The experiment in a line: cell-based immunofluorescence validation (FIG. 15): gB on beads or in supernatants, MUSK on cells.

Test [2] deals with T2, HHV8 protein KCP expressed on cells (gD-GPI construct or full-length protein) (Human herpesvirus 8, UniProt Q2HRD4 20-522).
T2 construct: also called HHV8 KCP
T2 sequence: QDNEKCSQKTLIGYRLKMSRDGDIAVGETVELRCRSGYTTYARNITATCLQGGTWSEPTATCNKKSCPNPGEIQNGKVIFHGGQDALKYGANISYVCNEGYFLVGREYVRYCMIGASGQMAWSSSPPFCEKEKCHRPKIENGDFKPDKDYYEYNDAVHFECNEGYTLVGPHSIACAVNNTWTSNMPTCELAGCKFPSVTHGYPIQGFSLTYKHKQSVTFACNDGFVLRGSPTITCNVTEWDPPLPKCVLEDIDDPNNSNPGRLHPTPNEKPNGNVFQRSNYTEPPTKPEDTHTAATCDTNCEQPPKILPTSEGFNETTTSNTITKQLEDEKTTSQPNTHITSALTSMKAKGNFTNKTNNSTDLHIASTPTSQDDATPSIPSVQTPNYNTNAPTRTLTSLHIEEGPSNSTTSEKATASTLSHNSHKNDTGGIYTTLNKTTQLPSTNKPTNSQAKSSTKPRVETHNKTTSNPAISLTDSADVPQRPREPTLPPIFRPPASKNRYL
Description: cell-based immunofluorescence validation (FIG. 17): receptor in supernatants, KCP on cells.

Test [3] deals with T3, VZV protein gC, soluble (captured on beads or assayed directly in supernatants) (Varicella zoster virus, UniProt P09256 54-559).
T3 construct: also called VZV gC
T3 sequence: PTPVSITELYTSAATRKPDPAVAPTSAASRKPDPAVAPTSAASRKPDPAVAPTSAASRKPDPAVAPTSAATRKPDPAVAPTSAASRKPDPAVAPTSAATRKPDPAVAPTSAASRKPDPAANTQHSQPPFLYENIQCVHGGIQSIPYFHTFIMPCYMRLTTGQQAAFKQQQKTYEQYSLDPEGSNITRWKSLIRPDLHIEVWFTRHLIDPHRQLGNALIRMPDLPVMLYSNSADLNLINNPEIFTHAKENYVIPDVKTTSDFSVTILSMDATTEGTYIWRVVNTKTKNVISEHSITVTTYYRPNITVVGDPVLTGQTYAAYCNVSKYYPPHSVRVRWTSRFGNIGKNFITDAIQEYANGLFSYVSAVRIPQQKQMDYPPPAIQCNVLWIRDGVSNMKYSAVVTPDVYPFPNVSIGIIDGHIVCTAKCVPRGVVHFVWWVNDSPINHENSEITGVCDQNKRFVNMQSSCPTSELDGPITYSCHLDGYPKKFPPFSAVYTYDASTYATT
The experiment in a line: cell-based immunofluorescence validation (FIGS. 14B and 22): soluble gC on cells with ICAM1.

Test [4] addresses B1. The experiment in a line: cell-based immunofluorescence validation (FIG. 16): gB on beads or in supernatants, HAVCR1 on cells.

B1: in test [1], the binding result is given as “binds”.
With B2, in test [2], the binding result is listed as “binds”.
As for B3, in test [3], the binding result was “binds”.
On to B4, for which the binding result in test [2] is on record as “binds”.
Consider B5, for which the binding result in test [4] is given as “binds”.

Values taken from patent publication US20240011017A1 (Genentech, published 2024).
